PMC5091765

Tests used:
[1] = molecular target: bovine TGF-β RI extracellular domain fused to the human IgG1 Fc domain (bovine) (UniProt O46680)
[2] = molecular target: bovine TGF-β RII extracellular domain fused to the human IgG1 Fc domain (bovine)
[3] = molecular target: bovine TGF-β RI extracellular domain fused to the human IgG1 Fc domain (bovine) (UniProt O46680); experiment: ELISA; competition: TGF-β coated at 400 ng/mL; increasing concentrations of FhTLM incubated with the Receptor-Fc fusion in solution at 37°C for 1 hr, then added to the plate
[4] = molecular target: bovine TGF-β RII extracellular domain fused to the human IgG1 Fc domain (bovine); experiment: as above
[5] = molecular target: bovine TGF-β RI extracellular domain fused to the human IgG1 Fc domain (bovine) (UniProt O46680); experiment: ELISA; competition: FhTLM coated at 400 ng/mL; increasing concentrations of TGF-β incubated with the Receptor-Fc fusion in solution at 37°C for 1 hr, then added to the plate
[6] = molecular target: bovine TGF-β RII extracellular domain fused to the human IgG1 Fc domain (bovine); experiment: as above

Chain of bovine TGF-β RI extracellular domain fused to the human IgG1 Fc domain (bovine) (O46680 30-122): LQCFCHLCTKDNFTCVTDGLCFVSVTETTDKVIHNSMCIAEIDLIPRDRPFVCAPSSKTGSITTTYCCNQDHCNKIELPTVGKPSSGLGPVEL

| percent reduction of the binding of TGF-β RI-Fc (printed as TGF-β RII-Fc a second time) to immobilised FhTLM [5] [%] | percent reduction of the binding of TGF-β RII-Fc to immobilised FhTLM [6] [%] | Substance | percent of primary bovine PBMCs positive for pSmad2/3 co-localised with the nucleus, 3 to 4 hrs with FhTLM [1] | percent of primary bovine PBMCs positive for pSmad2/3 co-localised with the nucleus, 3 to 4 hrs with FhTLM [2] | percent reduction of the binding of TGF-β RI-Fc to immobilised TGF-β1 [3] [%] | percent reduction of the binding of TGF-β RII-Fc to immobilised TGF-β1 [4] [%] |
| --- | --- | --- | --- | --- | --- | --- |
| – | – | F. hepatica TGF-like molecule, FhTLM (recombinant) (ligand) | 15.8 % of cells | 15.8 % of cells | 42 | 46 |
| 22 | 50 | human TGF-β1 (ligand) | – | – | – | – |
